Kd, koff and kon data for 12 molecules are collected here from patent US20120034160A1 (AbbVie / Abbott, published 2012).

Numbering of substitutions follows the chain as printed. Where only a bound is given, the exact number is not on record here.

The target in one test is T1, Recombinant Human IL-1β (human, UniProt P01584 117-269).
T1 construct: bought reagent; also called IL-1B
Kind of test: Biacore SPR; C-terminal VD. On the procedure: (§1) The BIACORE assay (Biacore, Inc, Piscataway, N.J.) determines the affinity of antibodies or DVD-Ig with kinetic measurements of on-rate and off-rate constants. Binding of antibodies or DVD-Ig to a target antigen (for example, a purified recombinant target antigen) was determined by surface plasmon resonance-based measurements with a Biacore® 1000 or 3000 instrument (Biacore® AB, Uppsala, Sweden) using running HBS-EP (10 mM HEPES [pH 7.4], 150 mM NaCl, 3 mM EDTA, and 0.005% surfactant P20) at 25° C. All chemicals were obtained from Biacore® AB (Uppsala, Sweden) or otherwise from a different source as described in the text. For example, approximately 5000 RU of goat anti-mouse IgG, (Fcγ), fragment specific polyclonal antibody (Pierce Biotechnology Inc, Rockford, Ill.) diluted in 10 mM sodium acetate (pH 4.5) was directly immobilized across a CM5 research grade biosensor chip using a standard amine coupling kit according to manufacturer's instructions and procedures at 25 μg/ml. Unreacted moieties on the biosensor surface were blocked with ethanolamine. Modified carboxymethyl dextran surface in flowcell 2 and 4 was used as a reaction surface. Unmodified carboxymethyl dextran without goat anti-mouse IgG in flow cell 1 and 3 was used as the reference surface. For kinetic analysis, rate equations derived from the 1:1 Langmuir binding model were fitted simultaneously to association and dissociation phases of all eight injections (using global fit analysis) with the use of Biaevaluation 4.0.1 software. Purified antibodies or DVD-Ig were diluted in HEPES-buffered saline for capture across goat anti-mouse IgG specific reaction surfaces. Antibodies or DVD-Ig to be captured as a ligand (25 μg/ml) were injected over reaction matrices at a flow rate of 5 μl/min. The association and dissociation rate constants, kₒₙ (M⁻¹s⁻¹) and koff (s⁻¹) were determined under a continuous flow rate of 25 μl/min. Rate constants were derived by making kinetic binding measurements at different antigen concentrations ranging from 10−200 nM. The equilibrium dissociation constant (M) of the reaction between antibodies or DVD-Igs and the target antigen was then calculated from the kinetic rate constants by the following formula: KD=koff/kₒₙ. Binding was recorded as a function of time and kinetic rate constants are calculated.
For orientation: SPR reads the build-up and loss of mass on a sensor chip optically.

The target in another test is T2, Recombinant Human IL-17 (human, UniProt Q16552 20-155, limits assumed).
T2 construct: bought reagent
T2 sequence (looked up): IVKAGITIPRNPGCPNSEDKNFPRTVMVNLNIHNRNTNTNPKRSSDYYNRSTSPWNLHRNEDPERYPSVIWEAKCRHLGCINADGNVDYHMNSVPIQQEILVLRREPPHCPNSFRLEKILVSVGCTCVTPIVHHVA
Nature of the test: Biacore SPR; N-terminal VD. How it is done: as §1

B1: DVD1269 (bispecific antibody, human IgG1, kappa)
heavy: not shown
light: DIQMTQSPSSLSASVGDRVTITCRASSGIISYIDWFQQKPGKAPKRLIYATFDLASGVPSRFSGSGSGTDYTLTISSLQPEDFATYYCRQVGSYPETFGQGTKLEIKRTVAAPDTVVTQSPAFLSVTPGEKVTITCITSTDIDVDMNWYQQKPDQPPKLLISQGNTLRPGVPSRFSSSGSGTDFTFTISSLEAEDAATYYCLQSDNLPLTFGQGTKLEIKRTVAAPSVFIFPPSDEQLKSGTASVVCLLNNFYPREAKVQWKVDNALQSGNSQESVTEQDSKDSTYSLSSTLTLSKADYEKHKVYACEVTHQGLSSPVTKSFNRGEC
notes: DVD-Ig, outer AB273, inner AB271, linker set 1; V1 wt hIgG1, V2 kappa; also called DVD1269H; DVD1269L
By Kd is commonly meant a measure of binding affinity in units of concentration. Broadly, the koff is the rate constant with which the complex falls apart. As usually defined, the kon is a measure of how fast the partners come together. B1: in the test with Recombinant Human IL-1β, the Kd was determined as 1.1 nM, the dissociation rate constant (koff) was 0.00043 s⁻¹ and the kon came to 400000 M⁻¹ s⁻¹. For the same molecule, in the test with Recombinant Human IL-17, the equilibrium dissociation constant (Kd) worked out at 0.032 nM, the dissociation rate constant (koff) was 5e-06 s⁻¹ and the association rate constant (kon) is 160000 M⁻¹ s⁻¹.

B2: DVD1277 (bispecific antibody, human IgG1, kappa)
heavy: not shown
light: EIVLTQSPDFQSVTPKEKVTITCRASQDIGSELHWYQQKPDQPPKLLIKYASHSTSGVPSRFSGSGSGTDFTLTINGLEAEDAGTYYCHQTDSLPYTFGPGTKVDIKRTVAAPDTQVTQSPSSLSASVGDRVTITCITSTDIDVDMNWYQQKPGKPPKLLISQGNTLRPGVPSRFSSSGSGTDFTFTISSLQPEDFATYYCLQSDNLPLTFGQGTKLEIKRTVAAPSVFIFPPSDEQLKSGTASVVCLLNNFYPREAKVQWKVDNALQSGNSQESVTEQDSKDSTYSLSSTLTLSKADYEKHKVYACEVTHQGLSSPVTKSFNRGEC
notes: DVD-Ig, outer AB274, inner AB270, linker set 1; V1 wt hIgG1, V2 kappa; also called DVD1277H; DVD1277L
For B2, in the test with Recombinant Human IL-1β, the Kd was determined as 2.1 nM, the koff turned out to be 0.00049 s⁻¹ and the association rate constant (kon) is 230000 M⁻¹ s⁻¹. For the same molecule, in the test with Recombinant Human IL-17, the equilibrium dissociation constant (Kd) came out at 0.16 nM, the dissociation rate constant (koff) was determined as 2.2e-05 s⁻¹ and the kon was 130000 M⁻¹ s⁻¹.

B3: DVD1281 (bispecific antibody, human IgG1, kappa)
heavy: not shown
light: B2 light with D114E, Q116T
notes: DVD-Ig, outer AB274, inner AB272, linker set 1; V1 wt hIgG1, V2 kappa; also called DVD1281H; DVD1281L
On to B3, for which, in the test with Recombinant Human IL-1β, the Kd was determined as 2 nM, the off-rate (koff) was 0.00058 s⁻¹ and the on-rate constant (kon) was determined as 280000 M⁻¹ s⁻¹. Moreover, in the test with Recombinant Human IL-17, the Kd came to 0.1 nM, the koff was 2e-05 s⁻¹ and the kon was determined as 200000 M⁻¹ s⁻¹.

B4: DVD1279 (bispecific antibody, human IgG1, kappa)
heavy: not shown
light: EIVLTQSPDFQSVTPKEKVTITCRASQDIGSELHWYQQKPDQPPKLLIKYASHSTSGVPSRFSGSGSGTDFTLTINGLEAEDAGTYYCHQTDSLPYTFGPGTKVDIKRTVAAPDTVVTQSPAFLSVTPGEKVTITCITSTDIDVDMNWYQQKPDQPPKLLISQGNTLRPGVPSRFSSSGSGTDFTFTISSLEAEDAATYYCLQSDNLPLTFGQGTKLEIKRTVAAPSVFIFPPSDEQLKSGTASVVCLLNNFYPREAKVQWKVDNALQSGNSQESVTEQDSKDSTYSLSSTLTLSKADYEKHKVYACEVTHQGLSSPVTKSFNRGEC
notes: DVD-Ig, outer AB274, inner AB271, linker set 1; V1 wt hIgG1, V2 kappa; also called DVD1279H; DVD1279L
Consider B4, for which, in the test with Recombinant Human IL-1β, the Kd was determined as 1.4 nM, the off-rate (koff) was determined as 0.00045 s⁻¹ and the kon is 320000 M⁻¹ s⁻¹. Further, in the test with Recombinant Human IL-17, the Kd worked out at 0.12 nM, the koff turned out to be 2.3e-05 s⁻¹ and the kon amounted to 190000 M⁻¹ s⁻¹.

B5: DVD1267 (bispecific antibody, human IgG1, kappa)
heavy: not shown
light: DIQMTQSPSSLSASVGDRVTITCRASSGIISYIDWFQQKPGKAPKRLIYATFDLASGVPSRFSGSGSGTDYTLTISSLQPEDFATYYCRQVGSYPETFGQGTKLEIKRTVAAPDTQVTQSPSSLSASVGDRVTITCITSTDIDVDMNWYQQKPGKPPKLLISQGNTLRPGVPSRFSSSGSGTDFTFTISSLQPEDFATYYCLQSDNLPLTFGQGTKLEIKRTVAAPSVFIFPPSDEQLKSGTASVVCLLNNFYPREAKVQWKVDNALQSGNSQESVTEQDSKDSTYSLSSTLTLSKADYEKHKVYACEVTHQGLSSPVTKSFNRGEC
notes: DVD-Ig, outer AB273, inner AB270, linker set 1; V1 wt hIgG1, V2 kappa; also called DVD1267H; DVD1267L
On to B5, for which, in the test with Recombinant Human IL-1β, the Kd turned out to be 1.1 nM, the koff is 0.00041 s⁻¹ and the on-rate constant (kon) is 370000 M⁻¹ s⁻¹. Moreover, in the test with Recombinant Human IL-17, the equilibrium dissociation constant (Kd) was at most 0.066 nM, the koff was at most 1e-05 s⁻¹ and the kon turned out to be 150000 M⁻¹ s⁻¹.

B6: DVD1271 (bispecific antibody, human IgG1, kappa)
heavy: not shown
light: B5 light with D114E, Q116T
notes: DVD-Ig, outer AB273, inner AB272, linker set 1; V1 wt hIgG1, V2 kappa; also called DVD1271H; DVD1271L
For B6, in the test with Recombinant Human IL-1β, the Kd stood at 2.2 nM, the koff came to 0.00071 s⁻¹ and the on-rate constant (kon) turned out to be 320000 M⁻¹ s⁻¹. In the test with Recombinant Human IL-17, the dissociation constant (Kd) was 0.11 nM, the off-rate (koff) is 1.2e-05 s⁻¹ and the kon stood at 110000 M⁻¹ s⁻¹.

B7: DVD1273 (bispecific antibody, human IgG1, kappa)
heavy: not shown
light: EIVLTQSPDFQSVTPKEKVTITCRASQDIGSELHWYQQKPDQPPKLLIKYASHSTSGVPSRFSGSGSGTDFTLTINGLEAEDAGTYYCHQTDSLPYTFGPGTKVDIKRTVAAPDIQMTQSPSSLSASVGDRVTITCRASGNIHNYLTWYQQTPGKAPKLLIYNAKTLADGVPSRFSGSGSGTDYTFTISSLQPEDIATYYCQHFWSIPYTFGQGTKLQITRTVAAPSVFIFPPSDEQLKSGTASVVCLLNNFYPREAKVQWKVDNALQSGNSQESVTEQDSKDSTYSLSSTLTLSKADYEKHKVYACEVTHQGLSSPVTKSFNRGEC
notes: V1 wt hIgG1, V2 kappa; also called DVD1273H; DVD1273L
As for B7, in the test with Recombinant Human IL-1β, the Kd came out at 0.27 nM, the koff amounted to 0.00019 s⁻¹ and the kon was 690000 M⁻¹ s⁻¹. Moreover, in the test with Recombinant Human IL-17, the dissociation constant (Kd) was 0.2 nM, the dissociation rate constant (koff) was found to be 2.2e-05 s⁻¹ and the kon is 110000 M⁻¹ s⁻¹.

B8: DVD1283 (bispecific antibody, human IgG1, kappa)
heavy: not shown
light: B7 light with D28N, P43S, T55I, G84A, T91S, S93T, Y96H, P100Q
notes: V1 wt hIgG1, V2 kappa; also called DVD1283H; DVD1283L
Consider B8, for which, in the test with Recombinant Human IL-1β, the dissociation constant Kd was determined as 0.1 nM, the koff stood at 0.00026 s⁻¹ and the kon turned out to be 2.5e+06 M⁻¹ s⁻¹. Further, in the test with Recombinant Human IL-17, the Kd was determined as 0.46 nM, the off-rate (koff) is 5.8e-05 s⁻¹ and the kon was 130000 M⁻¹ s⁻¹.

B9: DVD1285 (bispecific antibody, human IgG1, kappa)
heavy: not shown
light: B7 light with D28N, P43S, T55I, G84A, T91S, S93T, Y96H, P100Q
notes: V1 wt hIgG1, V2 kappa; also called DVD1285H; DVD1285L
B9: in the test with Recombinant Human IL-1β, the Kd amounted to 0.24 nM, the koff is 0.0002 s⁻¹ and the kon stood at 820000 M⁻¹ s⁻¹. In the test with Recombinant Human IL-17, the Kd is 0.39 nM, the off-rate (koff) worked out at 5.8e-05 s⁻¹ and the kon turned out to be 150000 M⁻¹ s⁻¹.

B10: DVD1275 (bispecific antibody, human IgG1, kappa)
heavy: not shown
light: B7 light
notes: V1 wt hIgG1, V2 kappa; also called DVD1275H; DVD1275L
As to B10, in the test with Recombinant Human IL-1β, the Kd was 0.15 nM, the off-rate (koff) turned out to be 0.00011 s⁻¹ and the kon stood at 760000 M⁻¹ s⁻¹. Besides, in the test with Recombinant Human IL-17, the Kd came out at 0.15 nM, the koff was determined as 2.1e-05 s⁻¹ and the on-rate constant (kon) was determined as 140000 M⁻¹ s⁻¹.

B11: DVD1263 (bispecific antibody, human IgG1, kappa)
heavy: not shown
light: DIQMTQSPSSLSASVGDRVTITCRASSGIISYIDWFQQKPGKAPKRLIYATFDLASGVPSRFSGSGSGTDYTLTISSLQPEDFATYYCRQVGSYPETFGQGTKLEIKRTVAAPDIQMTQSPSSLSASVGDRVTITCRASGNIHNYLTWYQQTPGKAPKLLIYNAKTLADGVPSRFSGSGSGTDYTFTISSLQPEDIATYYCQHFWSIPYTFGQGTKLQITRTVAAPSVFIFPPSDEQLKSGTASVVCLLNNFYPREAKVQWKVDNALQSGNSQESVTEQDSKDSTYSLSSTLTLSKADYEKHKVYACEVTHQGLSSPVTKSFNRGEC
notes: V1 wt hIgG1, V2 kappa; also called DVD1263H; DVD1263L
Regarding B11, in the test with Recombinant Human IL-1β, the Kd was found to be 0.17 nM, the off-rate (koff) is 0.00015 s⁻¹ and the association rate constant (kon) worked out at 890000 M⁻¹ s⁻¹. Moreover, in the test with Recombinant Human IL-17, the Kd came out at 0.061 nM, the koff came out at 7.8e-06 s⁻¹ and the on-rate (kon) came to 130000 M⁻¹ s⁻¹.

B12: DVD1265 (bispecific antibody, human IgG1, kappa)
heavy: not shown
light: B11 light
notes: V1 wt hIgG1, V2 kappa; also called DVD1265H; DVD1265L
B12: in the test with Recombinant Human IL-1β, the dissociation constant Kd is 0.088 nM, the koff came to 0.0003 s⁻¹ and the on-rate constant (kon) was 3.4e+06 M⁻¹ s⁻¹. For the same molecule, in the test with Recombinant Human IL-17, the dissociation constant Kd turned out to be 0.096 nM, the koff was 1.1e-05 s⁻¹ and the on-rate constant (kon) is 120000 M⁻¹ s⁻¹.
